Read-outs that look alike come from different tables or passages of the source.
Columns and labels:
[1] = molecular target: T1, SARS-CoV-2 RBD protein, wild type (recombinant) (SARS-CoV-2, UniProt P0DTC2 319-541); experiment: BLI (Octet), IgG culture supernatant
[2] = molecular target: SARS-CoV-2 spike 'D614 or G614' (pseudovirus of Table 23) (SARS-CoV-2, UniProt P0DTC2 14-1273); experiment: cell-based or functional assay
[3] = molecular target: T2, SARS-CoV-2 spike 501Y.V2 (pseudovirus of Tables 8/23) (SARS-CoV-2); experiment: cell-based or functional assay
[4] = molecular target: T1, SARS-CoV-2 RBD protein, wild type …; experiment: BLI
[5] = molecular target: T2, SARS-CoV-2 spike 501Y.V2 (pseudovirus …); experiment: cell-based or functional assay; remark: listed apart in the source

Binder | Kd [1] [nM] | IC50 [2] [µg/mL] | IC50 [3] [µg/mL] | Kd [4] [nM] | koff [4] [s⁻¹] | kon [4] [M⁻¹ s⁻¹] | IC50 [5] [µg/mL]
No. 32 antibody (Full IgG; Table 3/4 numbering) (antibody, V domains shown) VH: EVQLVQSGGGLIQPGGSLRLSCAASEFIVSSNYMTWVRQAPGKGLEWVSIIYPGGSTYYADSVKGRFTISRDNSKNTLYLRMNSLRAEDTAVYYCARDLPLTGTTLDYWGQGTLVTVSS VL: not shown | 0.147 | 0.00325 | 0.06 | 0.132 | 0.000103 | 779000 | –
No. 139 antibody (Full IgG) (antibody, V domains shown) VH: QITLKESGPTLVKPTQTLTLTCSFSGFSLSTSGVGVGWIRQPPGKALEWLALIDWDDNKYHTTSLKTRLTISKDTSKNQVVLTMTNMDPVDTATYYCARIPGFLRYRNRYYYYGMDVWGQGTTVTVSS VL: ELVLTQPPSVSAAPGQKVTISCSGSSSNIGNNYVSWYQQLPGTAPKLLIYDNNKRPSGIPDRFSGSKSGTSATLGITGLQTGDEADYYCGTWDSSLSAGVFGGGTELTVL | – | 0.00035 | 0.33 | – | – | – | 0.33

— patent KR20220139244A (dated 2022)
